Substrate in the data set: CC(C)[C@@H]1CC[C@@H](C)C[C@H]1O
Description: LC-MS/MS (MRM) of menthol glucoside, Lineweaver-Burk. Conditions: UDP-glucose as sugar donor (2 mM in the general protocol), 1 mM MgCl2, 50 mM Tris-HCl pH 8.0, 30 °C, 10 min. Type of data set: biochemical, Bacillus licheniformis.

B1: BLC (Bacillus licheniformis DSM 13 = ATCC 14580) (protein)
chain: MGHKHIAIFNIPAHGHINPTLALTASLVKRGYRVTYPVTDEFVKAVEETGAEPLNYRSTLNIDPQQIRELMKNKKDMSQAPLMFIKEMEEVLPQLEALYENDKPDLILFDFMAMAGKLLAEKFGIEAVRLCSTYAQNEHFTFRSISEEFKIELTPEQEDALKNSNLPSFNFEDMFEPAKLNIVFMPRAFQPYGETFDERFSFVGPSLAKRKFQEKETPIISDSGRPVMLISLGTAFNAWPEFYHMCIEAFRDTKWQVIMAVGTTIDPESFDDIPENFSIHQRVPQLEILKKAELFITHGGMNSTMEGLNAGVPLVAVPQMPEQEITARRVEELGLGKHLQPEDTTAASLREAVSQTDGDPHVLKRIQDMQKHIKQAGGAEKAADEIEAFLAPAGVK
notes: His-tagged, pET28a (BamHI/XhoI), expressed in E. coli BL21(DE3), Ni-NTA purified; cloned as in Wu et al. 2012
The Km is the concentration of substrate that gives half-maximal velocity. The term kcat denotes the maximal rate divided by the concentration of active sites. On to B1, for which the Km worked out at 1740 ± 600 µM and the kcat amounted to 1.58 ± 0.0388 s⁻¹.

(Values after publication PMC5574827, “Improvement of the pharmacological activity of menthol via enzymatic β-anomer-selective glycosylation” (AMB Express, 2017).)
